Laboratory results published in the supplement of paper PMC9233669.
This sample holds only a part of the variants without activity.

Columns and labels:
biotinyl-Phe-oxazolone = assay: self-aminoacylation, catalytic enhancement (BFO) (fold over background); higher = more active; k-Seq, kA / k0A0; sequences stand for … in GGGAAUGGAUCCACAUCUACGAAUUC…UUCACUGCAGACUUGACGAAGCUG
In short: (§1)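 Mutagenized RNA pools with a 21-nt variable region (0.43 μM) reacted with each biotinyl-aminoacyl-oxazolone at 2–1250 μM. Reactions ran in 50 μL HEPES/NaCl/KCl/MgCl2/CaCl2 buffer with 5% acetonitrile, pH 6.9–7.0, for 90 minutes at room temperature. Streptavidin-captured RNA was quantified by triplicate qPCR and Illumina sequencing, and per-sequence fraction reacted was fit to a pseudo-first-order model with 1000 bootstraps. Catalytic enhancement is median kA divided by the uncatalyzed rate, the low-activity peak of a bimodal Gaussian fit.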

biotinyl-Trp-oxazolone = assay: self-aminoacylation, catalytic enhancement (BWO) (fold over background); higher = more active; k-Seq, kA / k0A0; sequences stand for … in GGGAAUGGAUCCACAUCUACGAAUUC…UUCACUGCAGACUUGACGAAGCUG
In short: as §1

biotinyl-Ile-oxazolone = assay: self-aminoacylation, catalytic enhancement (BIO) (fold over background); higher = more active; k-Seq, kA / k0A0; sequences stand for … in GGGAAUGGAUCCACAUCUACGAAUUC…UUCACUGCAGACUUGACGAAGCUG
In short: as §1

biotinyl-Leu-oxazolone = assay: self-aminoacylation, catalytic enhancement (BLO) (fold over background); higher = more active; k-Seq, kA / k0A0; sequences stand for … in GGGAAUGGAUCCACAUCUACGAAUUC…UUCACUGCAGACUUGACGAAGCUG
In short: as §1

biotinyl-Met-oxazolone = assay: self-aminoacylation, catalytic enhancement (BMO) (fold over background); higher = more active; k-Seq, kA / k0A0; sequences stand for … in GGGAAUGGAUCCACAUCUACGAAUUC…UUCACUGCAGACUUGACGAAGCUG
In short: as §1

biotinyl-Val-oxazolone = assay: self-aminoacylation, catalytic enhancement (BVO) (fold over background); higher = more active; k-Seq, kA / k0A0; sequences stand for … in GGGAAUGGAUCCACAUCUACGAAUUC…UUCACUGCAGACUUGACGAAGCUG
In short: as §1

| Sequence | self-aminoacylation (biotinyl-Phe-oxazolone) | self-aminoacylation (biotinyl-Trp-oxazolone) | self-aminoacylation (biotinyl-Ile-oxazolone) | self-aminoacylation (biotinyl-Leu-oxazolone) | self-aminoacylation (biotinyl-Met-oxazolone) | self-aminoacylation (biotinyl-Val-oxazolone) |
| --- | --- | --- | --- | --- | --- | --- |
| AAGUUUGCUAAUGGUCGCUAG [Fam3.1 aminoacylation ribozyme variant] | 0.714 | 0.845 | 0.829 | 0.908 | 0.963 | 0.975 |
| AAGUUUGCUAAUUGCCGCAAG [Fam3.1 aminoacylation ribozyme variant] | 1.02 | 2.73 | 1.87 | 1.35 | 1.47 | 1.44 |
| AAGUUUGCUAAUUUUCGCAAG [Fam3.1 aminoacylation ribozyme variant] | 0.884 | 1.85 | 1.07 | 1.23 | 1.06 | 1.1 |
| AAGUUUGCUACCAGUCGCAAG [Fam3.1 aminoacylation ribozyme variant] | 0.754 | 0.552 | 1.12 | 0.891 | 1.47 | 0.912 |
| AAGUUUGCUACGAGUCGCAAG [Fam3.1 aminoacylation ribozyme variant] | 1.05 | 0.978 | 0.656 | 0.671 | 0.922 | 0.876 |
| AAGUUUGCUACUAGUCACAAG [Fam3.1 aminoacylation ribozyme variant] | 2.36 | 1.29 | 0.962 | 0.772 | 0.969 | 1.02 |
| AAGUUUGCUACUAGUCGCACG [Fam3.1 aminoacylation ribozyme variant] | 1.28 | 1.73 | 0.967 | 1.1 | 1.02 | 0.846 |
| AAGUUUGCUACUCGUCGCAAG [Fam3.1 aminoacylation ribozyme variant] | 0.598 | 1.31 | 0.823 | 0.958 | 0.922 | 1.04 |
| AAGUUUGCUAGUAGUCGCAAU [Fam3.1 aminoacylation ribozyme variant] | 1.2 | 0.724 | 1.01 | 0.95 | 0.922 | 1.08 |
| AAGUUUGCUAGUAGUGGCAAG [Fam3.1 aminoacylation ribozyme variant] | 1.2 | 0.556 | 0.893 | 0.71 | 0.882 | 0.814 |
| AAGUUUGCUAUAAGUCGCAAG [Fam3.1 aminoacylation ribozyme variant] | 1 | 0.892 | 1.12 | 0.726 | 0.995 | 0.9 |
| AAGUUUGCUAUUAGUCACAAG [Fam3.1 aminoacylation ribozyme variant] | 1.85 | 1.28 | 1.19 | 1.16 | 1.24 | 1.3 |
| AAGUUUGCUAUUAGUCGCAUG [Fam3.1 aminoacylation ribozyme variant] | 1.98 | 0.858 | 1.01 | 1.21 | 0.953 | 0.79 |
| AAGUUUGCUAUUCGUCGCAAG [Fam3.1 aminoacylation ribozyme variant] | 0.857 | 0.872 | 0.985 | 0.902 | 1.23 | 0.862 |
| AAGUUUGCUAUUUGUCGCAAG [Fam3.1 aminoacylation ribozyme variant] | 1.05 | 1.2 | 1.04 | 0.989 | 0.936 | 0.819 |
| AAGUUUGCUCAUAAUCGCAAG [Fam3.1 aminoacylation ribozyme variant] | 0.71 | 0.658 | 0.812 | 0.726 | 0.699 | 0.766 |
| AAGUUUGCUCAUAGCCGCAAG [Fam3.1 aminoacylation ribozyme variant] | 1.35 | 0.78 | 0.88 | 0.719 | 0.891 | 0.895 |
| AAGUUUGCUCAUAGUCGCAAA [Fam3.1 aminoacylation ribozyme variant] | 1.45 | 1.49 | 1.49 | 1.44 | 1.69 | 1.41 |
| AAGUUUGCUCAUAGUCGCAAG [Fam3.1 aminoacylation ribozyme variant] | 7.54 | 2.38 | 0.968 | 0.906 | 1.13 | 0.942 |
| AAGUUUGCUGAUAGUCGCAAG [Fam3.1 aminoacylation ribozyme variant] | 1.68 | 1.02 | 0.979 | 0.866 | 0.906 | 0.952 |
| AAGUUUGCUUAUAAUCGCAAG [Fam3.1 aminoacylation ribozyme variant] | 1.03 | 1.02 | 0.833 | 0.739 | 0.688 | 0.815 |
